From publication PMC5815094

Experiments:
Details in all cases: ES buffer: 10 mM Tris pH 8.0, 10 mM KCl, 40 mM NaCl, 1 mM MgCl2; MST + 0.05% Tween-20, room temperature; EMSA + 25 ng tRNA per 10 ul, 37 C 15 min (Fig 6D); NMR …
[1] = biological target: Hfq (Pseudomonas aeruginosa PAO1) (UniProt Q9HUM0); assay: EMSA
[2] = biological target: Hfq (Pseudomonas aeruginosa PAO1) (UniProt Q9HUM0); assay: MST
[3] = biological target: Hfq;Crc (Pseudomonas aeruginosa PAO1;Pseudomonas aeruginosa PAO1) (UniProt Q9HUM0+Q51380); assay: MST

Substance | binding [1] | Kd [2] [nM] | Kd [3] [nM]
GGACUGGUCGCGAGGCCAGCAGGUAAGCUGAGAGACCAAGCAGUCGGACUCUUCAGAUUAUCUCCUCAUCAGGCUAAUCACGGUUUCGACCCGGCACUUUGCCGGGUCUUUUUUUG [PrrF2 sRNA] | binds | – | –
PrrF2 sRNA | – | 6.7 | 35
